In patent US6420532B1, “Method of obtaining compositions comprising Y2 specific compounds” (Synaptic Pharmaceutical Corporation, priority 1994, dated 2002):
Read-outs that look alike come from different tables or passages of the source. Bridges are numbered along the chain shown (N, C = ends). Where no end group is shown, it is not given here. [ ]: non-standard residue; d: D form. Aoc = NCCCCCCCC(=O)O

T1: human hippocampal Y2 receptor (clone CG-13) (human, UniProt P49146 1-381)
T1 construct: 381 amino acids; also called CG-13 receptor; human Y2
T1 sequence: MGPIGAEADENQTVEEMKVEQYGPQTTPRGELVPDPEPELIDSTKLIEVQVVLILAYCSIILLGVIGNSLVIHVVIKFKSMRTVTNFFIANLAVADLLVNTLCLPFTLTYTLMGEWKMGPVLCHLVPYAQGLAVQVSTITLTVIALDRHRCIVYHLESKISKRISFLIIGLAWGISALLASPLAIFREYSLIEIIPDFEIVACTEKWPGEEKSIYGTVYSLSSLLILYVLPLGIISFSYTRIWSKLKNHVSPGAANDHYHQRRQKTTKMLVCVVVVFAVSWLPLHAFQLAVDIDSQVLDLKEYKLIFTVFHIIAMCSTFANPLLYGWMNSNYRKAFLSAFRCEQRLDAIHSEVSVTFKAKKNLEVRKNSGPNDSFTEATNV

T2: human Y1 receptor (human, UniProt P25929 1-384)
T2 construct: whole, on cells; transiently expressed in COS-7 cells; membranes used; also called Y1 gene
T2 sequence (looked up): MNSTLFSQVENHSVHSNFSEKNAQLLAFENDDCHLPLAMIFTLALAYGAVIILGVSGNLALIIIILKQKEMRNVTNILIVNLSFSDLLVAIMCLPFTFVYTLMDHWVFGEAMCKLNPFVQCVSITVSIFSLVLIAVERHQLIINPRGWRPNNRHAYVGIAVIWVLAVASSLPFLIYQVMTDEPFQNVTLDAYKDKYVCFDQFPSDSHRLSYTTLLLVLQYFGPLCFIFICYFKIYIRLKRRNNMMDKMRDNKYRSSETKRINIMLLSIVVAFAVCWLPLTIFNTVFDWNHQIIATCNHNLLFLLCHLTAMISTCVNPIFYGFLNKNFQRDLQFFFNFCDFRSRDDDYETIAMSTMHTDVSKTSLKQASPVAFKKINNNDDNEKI

T3: Y2-like receptor population expressed by human SK-N-Be(2) neuroblastoma cells (human)
T3 chain: T1 sequence

T4: rat Y2a receptor (encoded by rs5a) (rat)
T4 chain: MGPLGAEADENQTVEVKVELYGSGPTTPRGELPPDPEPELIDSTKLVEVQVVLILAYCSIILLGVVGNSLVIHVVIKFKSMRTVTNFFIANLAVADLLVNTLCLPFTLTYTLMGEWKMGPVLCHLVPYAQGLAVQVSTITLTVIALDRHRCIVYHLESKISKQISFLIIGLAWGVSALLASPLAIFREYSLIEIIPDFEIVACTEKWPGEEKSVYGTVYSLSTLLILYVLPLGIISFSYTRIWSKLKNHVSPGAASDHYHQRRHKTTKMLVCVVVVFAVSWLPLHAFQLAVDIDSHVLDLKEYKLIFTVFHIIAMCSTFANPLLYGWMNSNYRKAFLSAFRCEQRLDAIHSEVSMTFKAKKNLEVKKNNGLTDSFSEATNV

B1: C2-NPY, porcine (peptide)
chain: YCSK[Aoc]RHCINLITRQRY-NH2
modifications: disulfide 2-8; N-terminus assumed
SMILES: CC[C@H](C)[C@H](NC(=O)[C@@H]1CSSC[C@H](NC(=O)[C@@H](N)Cc2ccc(O)cc2)C(=O)N[C@@H](CO)C(=O)N[C@@H](CCCCN)C(=O)NCCCCCCCC(=O)N[C@@H](CCCNC(=N)N)C(=O)N[C@@H](Cc2c[nH]cn2)C(=O)N1)C(=O)N[C@@H](CC(N)=O)C(=O)N[C@@H](CC(C)C)C(=O)N[C@H](C(=O)N[C@H](C(=O)N[C@@H](CCCNC(=N)N)C(=O)N[C@@H](CCC(N)=O)C(=O)N[C@@H](CCCNC(=N)N)C(=O)N[C@@H](Cc1ccc(O)cc1)C(N)=O)[C@@H](C)O)[C@@H](C)CC
B2: porcine NPY13-36 (peptide, UniProt P01304 22-45, looked up)
peptide: PAEDLARYYSALRHYINLITRQRY-NH2
notes: range 13-36; also called NPY13-36, porcine
B3: porcine NPY20-36 (peptide, UniProt P01304 29-45, looked up)
peptide: YYSALRHYINLITRQRY-NH2
notes: range 20-36; also called NPY20-36, porcine
B4: porcine NPY26-36 (peptide, UniProt P01304 35-45, looked up)
peptide: HYINLITRQRY-NH2
notes: range 26-36; also called NPY26-36, porcine
B5: porcine PYY13-36 (peptide, UniProt P68005 13-36, looked up)
peptide: SPEELSRYYASLRHYLNLVTRQRY-NH2
notes: range 13-36; also called PYY13-36, porcine

What was measured:
[1] = biological target: T1, human hippocampal Y2 receptor (clone …); assay: 125I-PYY displacement binding assay (Table 9, binding column)
human Y4 receptor = biological target: T5, human Y4 receptor (human, UniProt P50391 1-375); assay: 125I-PYY displacement, COS-7 membranes, Ki from IC50
T5 construct: whole, on cells; transiently expressed in COS-7 cells; membranes used
T5 sequence (P50391 whole entry): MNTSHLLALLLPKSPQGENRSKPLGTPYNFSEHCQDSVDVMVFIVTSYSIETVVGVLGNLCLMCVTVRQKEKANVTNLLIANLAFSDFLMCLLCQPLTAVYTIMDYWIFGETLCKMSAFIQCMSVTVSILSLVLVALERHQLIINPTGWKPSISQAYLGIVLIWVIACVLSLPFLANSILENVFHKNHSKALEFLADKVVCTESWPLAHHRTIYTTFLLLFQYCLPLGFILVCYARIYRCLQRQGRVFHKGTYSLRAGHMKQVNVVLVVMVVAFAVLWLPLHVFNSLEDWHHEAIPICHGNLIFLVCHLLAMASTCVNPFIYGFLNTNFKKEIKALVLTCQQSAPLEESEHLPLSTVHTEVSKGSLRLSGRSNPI

human Y1 receptor [2] = biological target: T2, human Y1 receptor; assay: as above
[3] = biological target: T1, human hippocampal Y2 receptor (clone …); assay: as above
[4] = biological target: T1, human hippocampal Y2 receptor (clone …); assay: cell-based or functional assay
[5] = biological target: T3, Y2-like receptor population expressed …; assay: 125I-PYY displacement, SK-N-Be(2) membranes, Ki from IC50
human Y1 receptor [6] = biological target: T2, human Y1 receptor; assay: 125I-PYY displacement, COS-7 membranes, Ki from IC50; remark: listed apart in the source
[7] = biological target: T1, human hippocampal Y2 receptor (clone …); assay: as above; remark: listed apart in the source
[8] = biological target: T1, human hippocampal Y2 receptor (clone …); assay: as above; remark: listed apart in the source
[9] = biological target: T4, rat Y2a receptor (encoded by rs5a); assay: as above

Row | Binder | Ki (human Y4 receptor) [nM] | Ki (human Y1 receptor [2]) [nM] | Ki [3] [nM] | Ki [7] [nM] | other results
1 | B1 | 120 | 73 | 3.5 |  | Ki [1]: 3.5 nM; EC50, inhibition of forskolin-stimulated cAMP accumulation, stably transfected 293 cells [4]: 0.14 nM
2 | B2 | 38 |  |  |  | Ki [5]: 1.8 nM
3 | B3 | 120 | 63 |  |  | Ki (human Y1 receptor [6]): 62 nM
4 | B4 |  | > 1000 | 380 | 380 | Ki [5]: 70 nM; Ki [8]: 210 nM
5 | YPSKPDNPGEDAPAEDMARYYSAL-NH2 (peptide, UniProt P01303 29-52, looked up, range 1-24) [NPY1-24 amide, human] |  |  | > 1000 |  | 
6 | APLEPEYPGDNATPEQMAQYAAELRRYINMLTRPRY-NH2 (peptide, UniProt P01302 30-65, looked up, mature; also called bovine PP) [PP, bovine] | 0.05 | 240 | 830 | > 825 | 
7 | APLEPMYPGDYATHEQRAQYETQLRRYINTLTRPRY-NH2 (peptide, UniProt P06303 30-65, looked up, mature; also called rat PP) [PP, rat] | 0.18 | 460 | > 1000 | > 1000 | 
8 | APSEPHHPGDQATQDQLAQYYSDLYQYITFVTRPRF-NH2 (also called frog PP) [PP, frog] | 61 | 96 | > 1000 |  | 
9 | B5 |  |  |  |  | Ki [9]: 1.5 nM; Ki [8]: 1.5 nM
